Laboratory results taken from the DeepSol protein solubility set.

Assay: soluble on expression in E. coli; label from the status in PepcDB or PDB records

Sequence	soluble on expression in E. coli
MSLKISVIIPIYNAENYIEKAFSSLKNQTLAQNEFEILCIDDKSTDNSLGKLKQLSKIHKNMRIINLHKNSGGPMIPRNKGIKEAKGKYIIFLDNDDYLGEEALERLFIQAEKNQSEVIFGKYVGINGRGVPQSQFKKGNRNEADILADNLVYTLAPHKMFQTAFLKTKKIYFDPNILIGEDQYFVMKAYVNAKVITVLADYDYYYVVSRGDENLSIKESKMDPREICKVVPAVVKEIEASPLHPTYKKTLIRAYIQRYFNDYITGNYNLDYKNMSERQKTFVQVMKDTIVCHLDEKMKNELPTKTRFMIDIIAENNPEKLIDVRMQMENFSKNQVVKVENGYIKGRFRKMRPQLAYDDVYDINHLNSSKVQLHSVTLQNNNYLLDISLEQSLLTRFQTALRLCLKERDGNLEIWISPLKMLSTERGIYAVDSTLFNHTCIWDLFIESEINGFKNRKRVGKDRDFEEIVSSNNTPLLIQNNSYQIKAYFTTPFSNLSFQIISEEGHHHHHH	soluble
MSLKKVKCITGMISLQGKRPTNEDTEIVKDKIKKDKIKFGLYAVFDGHGGSGTSQAAISVVEEELMKSELMKKKMYEEMMNEIFSKSDKILCNTVYDNSGCTAAVVLVIGRFLICANVGDSEVLVISEGKQYEVLSVQHKAKLPDEKKRITSLGVPVYGGRVYGSLAVSRSLGDKQYKGGRGAVISTPHVKVYEMTKKDKAFVISCDGIYETLNYDDVVDWVITGMKLNKAPTIIAENIAMDALEKGSKDNVSVIVSLLKWKEGHHHHHH	not soluble
MAHHHHHHMKKAKGSMKRLREGAENGTGGRNSSMKRQKGSTTGALSFAITNNTVTLERKARRQPKVAERCEDDDDEEDVELSKAVQAQTLSFLQHLNSKSSKTFWELRDVAQGKLSAASATTATSSSSQLPSSSRTKAAKGNAKGAKKLADDGEELWRVGGPYISGDQADDTDESERECGRTSDSELQSSTSSSEPSWVTDSSEEEDGGGSDDEAESAPVAAGATSRRSAAEPPKRGGGGGRLFQGGGDGVWDED	soluble
MSLNSKDIAKIVGVSRSTVSRVINNYPDIPQATREKVLKAIKEYNYYPNASARRLAGMKSSTLGIFIIDIKDNEKPHHVIENNEDLLYGNSYFSPFINAFIDQSNKAQYHVLVSTIYSSDELWKIQSAFYEKRIDGAVIIGSSSIDYSKIFEIMDKDSITVAVDLDMEKENTGTVMSVNINNYGGVSDAIDYLVELGHKDIAVITGDLNKLSGKIRFESFKDALLRHGLPLNNDFIAYGDFTENSGYEGMKKILASGKKPTAVFTSNDTMAIGAYRAIKEYGLKIPEDISVMGFDNSYISQYMSPPLTTVNVSLPEIAKCSIELLLDSINNKEIKNRQKTVNVQIVKRNSCKKEGHHHHHH	soluble
AKDWKWNLNWNGALNKNKVVSLPDNGLERNRQSAYQVYTGNGDEKKWVGGYQEGQRPGDLYMFVAEGLYKSQDEIPANLIDLTTGNNGSSGRPLYGGAEGYNKLTDSQKSNALPIQPGDVKWKDVNNDGVIDNYDMVKVGNTVPKWTGGINTTVSWKDLTLSARFDYALGFTAVDWKTMWIMSCAQGTYNTIEETKNTWTPENPNAKYPTYVWADQLGKRNYCRSSSMFAYNGNYIALRELSLSYKLPSILVQKAKLSNVELSITGQNLGYLTEAKHLFSPEKADNNGGYPLPRTVIFGINVSF	not soluble
MSLKREIILYKSISTDLLEQLKNRFIVHQHQLKSEMDDSFFSDLQRVEGIIGSKLRVDGHLLDQAPHLKIVTNISVGYDNLEIEELTKRGIMATNTPDVLTDTVADTVFGLLLATSRRICELDQYVKLGRWDENIGEHLFGVDVHHKTLGIIGMGRIGLAVAERAHYGFKMKIVYHNRSTHSYAEKNINATYASLEELLTVSDFVLVMAPLVPETVKLIGEKEFDLMKETAIFLNGSRGELVDELALIHALQSKKIWGAGLDVYEQEPISKESLLLQLKNVVTLPHIGSATRETRYKMAKLAVDNLMKGFTGEVPPSLINPDVLTDEGHHHHHH	not soluble
MVLKGDAKRIVAMSSTHIAMLDAIGEVRCITGVSGIDYISNPDIQARRDSIGDVGYEGNINYELLLSLDPDLVLLYGVNGASAMESKLEELDIPFMYVGDYLEESPLGKAEWMVVLSEVTGKREKGEKAFAAIPVRYNALKKKVADSTLGLEHHHHHH	not soluble
MGHHHHHHGGHMSLLRFLEVVSEHIKNLRNHIDLETVGEMIKLIDSARSIFVIGAGRSGYIAKAFAMRLMHLGYTVYVVGETVTPRITDQDVLVGISGSGETTSVVNISKKAKDIGSKLVAVTGKRDSSLAKMADVVMVVKGKMKQERDEILSQLAPLGTMFELTAMIFLDALVAEIMMQKHLTEKDLEARHAVLEEGGS	soluble
